Assays:
Conditions in all cases: both partners purified
[1] = biological target: Phosphorylated ubiquitin (phospho-Ser65 ubiquitin) (UniProt P0CG48 1-76, phosphoserine at 65); assay: ITC; Parkin constructs titrated with pUb; 20°C; 50 mM Tris–HCl pH 7.4, 150 mM NaCl, 1 mM TCEP; stoichiometry determined experimentally
[2] = biological target: T1, UbcH7 (E2 ubiquitin-conjugating enzyme) (UniProt P68036 1-154); assay: NMR titration; 15N-UbcH7 with unlabeled Parkin constructs with or without pUb; 1H-15N correlation spectra, 293 K; 20 mM Tris–HCl, 120 mM NaCl, 2 mM DTT, pH 7.4; binding read as loss of signals
T1 sequence (P68036 whole entry): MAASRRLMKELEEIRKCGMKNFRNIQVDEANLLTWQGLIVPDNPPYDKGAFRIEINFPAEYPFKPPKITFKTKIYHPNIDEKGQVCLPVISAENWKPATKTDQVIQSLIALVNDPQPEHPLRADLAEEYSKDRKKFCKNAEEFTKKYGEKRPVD

[3] = biological target: T1, UbcH7 (E2 ubiquitin-conjugating enzyme); assay: ITC; Parkin constructs titrated with UbcH7; 20°C; 50 mM Tris–HCl pH 7.4, 150 mM NaCl, 1 mM TCEP; stoichiometry fixed to 1:1
[4] = biological target: His-tagged phosphorylated ubiquitin (UniProt P0CG48 1-76, phosphoserine at 65); assay: pull-down; 1 nmol His-tagged pUb on Ni-NTA resin, 15 min with 1 nmol R0RBR variant; TBS, 2 mM BME, 0.02% Igepal 630; SDS–PAGE, Coomassie

Kd [1] [µM] | binding result [4] | Binder | also measured
– | binds | R271A Parkin R0RBR (domain or fragment, rat) PTYHSFFVYCKGPCHKVQPGKLRVQCGTCRQATLTLAQGPSCWDDVLIPNRMSGECQSPDCPGTRAEFFFKCGAHPTSDKDTSVALNLITNNSRSIPCIACTDVRNPVLVFQCNHRHVICLDCFHLYCVTALNDRQFVHDAQLGYSLPCVAGCPNSLIKELHHFRILGEEQYNRYQQYGAEECVLQMGGVLCPRPGCGAGLLPEQGQKKVTCEGGNGLGCGFVFCRDCKEAYHEGECDSMFEASGATSQAYRVDQRAAEQARWEEASKETIKKTTKPCPRCNVPIEKNGGCMHMKCPQPQCKLEWCWNCGCEWNRACMGDHWFDV | –
– | binds | R275A Parkin R0RBR (domain or fragment, rat) PTYHSFFVYCKGPCHKVQPGKLRVQCGTCRQATLTLAQGPSCWDDVLIPNRMSGECQSPDCPGTRAEFFFKCGAHPTSDKDTSVALNLITNNSRSIPCIACTDVRNPVLVFQCNHRHVICLDCFHLYCVTRLNDAQFVHDAQLGYSLPCVAGCPNSLIKELHHFRILGEEQYNRYQQYGAEECVLQMGGVLCPRPGCGAGLLPEQGQKKVTCEGGNGLGCGFVFCRDCKEAYHEGECDSMFEASGATSQAYRVDQRAAEQARWEEASKETIKKTTKPCPRCNVPIEKNGGCMHMKCPQPQCKLEWCWNCGCEWNRACMGDHWFDV | –
– | binds | K161N Parkin R0RBR (domain or fragment, rat) PTYHSFFVYCKGPCHKVQPGNLRVQCGTCRQATLTLAQGPSCWDDVLIPNRMSGECQSPDCPGTRAEFFFKCGAHPTSDKDTSVALNLITNNSRSIPCIACTDVRNPVLVFQCNHRHVICLDCFHLYCVTRLNDRQFVHDAQLGYSLPCVAGCPNSLIKELHHFRILGEEQYNRYQQYGAEECVLQMGGVLCPRPGCGAGLLPEQGQKKVTCEGGNGLGCGFVFCRDCKEAYHEGECDSMFEASGATSQAYRVDQRAAEQARWEEASKETIKKTTKPCPRCNVPIEKNGGCMHMKCPQPQCKLEWCWNCGCEWNRACMGDHWFDV | –
– | binds | R314A Parkin R0RBR (domain or fragment, rat) PTYHSFFVYCKGPCHKVQPGKLRVQCGTCRQATLTLAQGPSCWDDVLIPNRMSGECQSPDCPGTRAEFFFKCGAHPTSDKDTSVALNLITNNSRSIPCIACTDVRNPVLVFQCNHRHVICLDCFHLYCVTRLNDRQFVHDAQLGYSLPCVAGCPNSLIKELHHFRILGEEQYNAYQQYGAEECVLQMGGVLCPRPGCGAGLLPEQGQKKVTCEGGNGLGCGFVFCRDCKEAYHEGECDSMFEASGATSQAYRVDQRAAEQARWEEASKETIKKTTKPCPRCNVPIEKNGGCMHMKCPQPQCKLEWCWNCGCEWNRACMGDHWFDV | –
– | binds | R334A Parkin R0RBR (domain or fragment, rat) PTYHSFFVYCKGPCHKVQPGKLRVQCGTCRQATLTLAQGPSCWDDVLIPNRMSGECQSPDCPGTRAEFFFKCGAHPTSDKDTSVALNLITNNSRSIPCIACTDVRNPVLVFQCNHRHVICLDCFHLYCVTRLNDRQFVHDAQLGYSLPCVAGCPNSLIKELHHFRILGEEQYNRYQQYGAEECVLQMGGVLCPAPGCGAGLLPEQGQKKVTCEGGNGLGCGFVFCRDCKEAYHEGECDSMFEASGATSQAYRVDQRAAEQARWEEASKETIKKTTKPCPRCNVPIEKNGGCMHMKCPQPQCKLEWCWNCGCEWNRACMGDHWFDV | –
– | binds | K369A Parkin R0RBR (domain or fragment, rat) PTYHSFFVYCKGPCHKVQPGKLRVQCGTCRQATLTLAQGPSCWDDVLIPNRMSGECQSPDCPGTRAEFFFKCGAHPTSDKDTSVALNLITNNSRSIPCIACTDVRNPVLVFQCNHRHVICLDCFHLYCVTRLNDRQFVHDAQLGYSLPCVAGCPNSLIKELHHFRILGEEQYNRYQQYGAEECVLQMGGVLCPRPGCGAGLLPEQGQKKVTCEGGNGLGCGFVFCRDCAEAYHEGECDSMFEASGATSQAYRVDQRAAEQARWEEASKETIKKTTKPCPRCNVPIEKNGGCMHMKCPQPQCKLEWCWNCGCEWNRACMGDHWFDV | –

The remaining lines, values behind:

Binder | Kd [1] [µM] | binding result [4] | also measured
Phosphorylated Parkin (phospho-Ser65 in the Ubl domain) (enzyme, rat, UniProt Q9JK66 1-465, looked up, phosphoserine at 65) MIVFVRFNSSYGFPVEVDSDTSIFQLKEVVAKRQGVPADQLRVIFAGKELQNHLTVQNCDLEQQSIVHIVQRPQRKSHETNASGGDKPQSTPEGSIWEPRSLTRVDLSSHILPADSVGLAVILDTDSKSDSEAARGPEAKPTYHSFFVYCKGPCHKVQPGKLRVQCGTCRQATLTLAQGPSCWDDVLIPNRMSGECQSPDCPGTRAEFFFKCGAHPTSDKDTSVALNLITNNSRSIPCIACTDVRNPVLVFQCNHRHVICLDCFHLYCVTRLNDRQFVHDAQLGYSLPCVAGCPNSLIKELHHFRILGEEQYNRYQQYGAEECVLQMGGVLCPRPGCGAGLLPEQGQKKVTCEGGNGLGCGFVFCRDCKEAYHEGECDSMFEASGATSQAYRVDQRAAEQARWEEASKETIKKTTKPCPRCNVPIEKNGGCMHMKCPQPQCKLEWCWNCGCEWNRACMGDHWFDV | 0.017 | – | –
Full-length L266K Parkin (enzyme, rat, UniProt Q9JK66 1-465, looked up) MIVFVRFNSSYGFPVEVDSDTSIFQLKEVVAKRQGVPADQLRVIFAGKELQNHLTVQNCDLEQQSIVHIVQRPQRKSHETNASGGDKPQSTPEGSIWEPRSLTRVDLSSHILPADSVGLAVILDTDSKSDSEAARGPEAKPTYHSFFVYCKGPCHKVQPGKLRVQCGTCRQATLTLAQGPSCWDDVLIPNRMSGECQSPDCPGTRAEFFFKCGAHPTSDKDTSVALNLITNNSRSIPCIACTDVRNPVLVFQCNHRHVICLDCFHKYCVTRLNDRQFVHDAQLGYSLPCVAGCPNSLIKELHHFRILGEEQYNRYQQYGAEECVLQMGGVLCPRPGCGAGLLPEQGQKKVTCEGGNGLGCGFVFCRDCKEAYHEGECDSMFEASGATSQAYRVDQRAAEQARWEEASKETIKKTTKPCPRCNVPIEKNGGCMHMKCPQPQCKLEWCWNCGCEWNRACMGDHWFDV | 0.037 | – | –
Full-length Parkin, unmodified (enzyme, rat, UniProt Q9JK66 1-465, looked up) MIVFVRFNSSYGFPVEVDSDTSIFQLKEVVAKRQGVPADQLRVIFAGKELQNHLTVQNCDLEQQSIVHIVQRPQRKSHETNASGGDKPQSTPEGSIWEPRSLTRVDLSSHILPADSVGLAVILDTDSKSDSEAARGPEAKPTYHSFFVYCKGPCHKVQPGKLRVQCGTCRQATLTLAQGPSCWDDVLIPNRMSGECQSPDCPGTRAEFFFKCGAHPTSDKDTSVALNLITNNSRSIPCIACTDVRNPVLVFQCNHRHVICLDCFHLYCVTRLNDRQFVHDAQLGYSLPCVAGCPNSLIKELHHFRILGEEQYNRYQQYGAEECVLQMGGVLCPRPGCGAGLLPEQGQKKVTCEGGNGLGCGFVFCRDCKEAYHEGECDSMFEASGATSQAYRVDQRAAEQARWEEASKETIKKTTKPCPRCNVPIEKNGGCMHMKCPQPQCKLEWCWNCGCEWNRACMGDHWFDV | 0.431 | – | –
W403A Parkin (enzyme, rat, UniProt Q9JK66 1-465, looked up) MIVFVRFNSSYGFPVEVDSDTSIFQLKEVVAKRQGVPADQLRVIFAGKELQNHLTVQNCDLEQQSIVHIVQRPQRKSHETNASGGDKPQSTPEGSIWEPRSLTRVDLSSHILPADSVGLAVILDTDSKSDSEAARGPEAKPTYHSFFVYCKGPCHKVQPGKLRVQCGTCRQATLTLAQGPSCWDDVLIPNRMSGECQSPDCPGTRAEFFFKCGAHPTSDKDTSVALNLITNNSRSIPCIACTDVRNPVLVFQCNHRHVICLDCFHLYCVTRLNDRQFVHDAQLGYSLPCVAGCPNSLIKELHHFRILGEEQYNRYQQYGAEECVLQMGGVLCPRPGCGAGLLPEQGQKKVTCEGGNGLGCGFVFCRDCKEAYHEGECDSMFEASGATSQAYRVDQRAAEQARAEEASKETIKKTTKPCPRCNVPIEKNGGCMHMKCPQPQCKLEWCWNCGCEWNRACMGDHWFDV | – | – | binding result [2]: binds
H302A Parkin R0RBR (domain or fragment, rat) PTYHSFFVYCKGPCHKVQPGKLRVQCGTCRQATLTLAQGPSCWDDVLIPNRMSGECQSPDCPGTRAEFFFKCGAHPTSDKDTSVALNLITNNSRSIPCIACTDVRNPVLVFQCNHRHVICLDCFHLYCVTRLNDRQFVHDAQLGYSLPCVAGCPNSLIKELAHFRILGEEQYNRYQQYGAEECVLQMGGVLCPRPGCGAGLLPEQGQKKVTCEGGNGLGCGFVFCRDCKEAYHEGECDSMFEASGATSQAYRVDQRAAEQARWEEASKETIKKTTKPCPRCNVPIEKNGGCMHMKCPQPQCKLEWCWNCGCEWNRACMGDHWFDV | 1.33 | – | –
W403A Parkin R0RBR (domain or fragment, rat) PTYHSFFVYCKGPCHKVQPGKLRVQCGTCRQATLTLAQGPSCWDDVLIPNRMSGECQSPDCPGTRAEFFFKCGAHPTSDKDTSVALNLITNNSRSIPCIACTDVRNPVLVFQCNHRHVICLDCFHLYCVTRLNDRQFVHDAQLGYSLPCVAGCPNSLIKELHHFRILGEEQYNRYQQYGAEECVLQMGGVLCPRPGCGAGLLPEQGQKKVTCEGGNGLGCGFVFCRDCKEAYHEGECDSMFEASGATSQAYRVDQRAAEQARAEEASKETIKKTTKPCPRCNVPIEKNGGCMHMKCPQPQCKLEWCWNCGCEWNRACMGDHWFDV | – | – | Kd [3]: 119 µM
Parkin R0RBR module (RING0, RING1, IBR, RING2), wild type (domain or fragment, rat) PTYHSFFVYCKGPCHKVQPGKLRVQCGTCRQATLTLAQGPSCWDDVLIPNRMSGECQSPDCPGTRAEFFFKCGAHPTSDKDTSVALNLITNNSRSIPCIACTDVRNPVLVFQCNHRHVICLDCFHLYCVTRLNDRQFVHDAQLGYSLPCVAGCPNSLIKELHHFRILGEEQYNRYQQYGAEECVLQMGGVLCPRPGCGAGLLPEQGQKKVTCEGGNGLGCGFVFCRDCKEAYHEGECDSMFEASGATSQAYRVDQRAAEQARWEEASKETIKKTTKPCPRCNVPIEKNGGCMHMKCPQPQCKLEWCWNCGCEWNRACMGDHWFDV | 0.022 | – | Kd [3]: > 700 µM

From paper PMC4609182 (The EMBO Journal, 2015)
